From patent publication US20240287489A1, “CHITINOLYTIC ENZYME-BASED PLANT PROTECTION AGENTS” (GLOBACHEM NV, priority 2021, published 2024)

B1: Chitinase 3: chitinolytic enzyme from P. orarium, SEQ ID NO: 3, recombinant with PelB signal peptide and 6×His tag (protein, listed as Photobacterium orarium)
chain: MALAAPGTPQLAWMETDYAIVEVDQAATAYKDLVTVKNAADVPVAWQRYSGETADHWKVKLNGNVAFEESINPASSGAGSTTLSITQGGQYALTVELCSGSGAEEACSSSPATNIVVADTDGSHLDPLPMNVDPNNGTYSTPADTVVGAYFVEWGVFGRKFTVDKIPAQNLTHILYGFIPVCGPNESLGEIESGNSLAALNRACAGTPDFEVAIHDPWAAVQMPQPQSGHTYSTPYKGNYGQLMALKQRYPDLKVIPSIGGWTLSDPFFSFTDKSKRDVFVASVKKFLQTWKFFDGVDIDWEFPGGKGANTTLGDPVNDGPAYVALMRELRTMLDGLEAETGRQFELTSAIGVGYDKIDVVNYAEASQYMDYIFNMSYDFYGGWSNVTGHQTALNCGSHLTADQCNGTGVDENGEPRQGPAYTTAHGVERLLAQGVPANKLVVGAAMYGRGWTGVTQASMTDPSNPMTGVGNGAVAGSWEAGVIDYKDVVTRYENKAGVVLGYDEQAEAPWAYDPSNGDLVTYDSPRSIMAKGQYVRDLGLAGLFAWEIDADNGDILNAMQESLAGAPAGNRAPVARAGSDQQVNTAATVTLNGSSSTDSDGQIAGYQWVQTSGPALTLNGANTASATISVPDVTVDTQYVFTLTVTDNEGATATDSITVTAKAPGAQNTAPVASLTGPGTANADDVITLDASQSTDADGDTLTYDWTVPAGVNAVINGSSLSFTADSYTTDTALSFSVSVSDGTASDAASLTVTIAKDESGTGGEGDFPAYVEGTAYQAGDQVSNGGVNFECKPYPYSGWCSGAAWAYEPGVGVYWQDAWTQLIE
modifications: PelB signal peptide; 6xHis tag; Chitinase 3
B2: Chitinase 4: chitinolytic enzyme from P. orarium, SEQ ID NO: 4, recombinant with PelB signal peptide and 6×His tag (protein, listed as Photobacterium orarium)
chain: MAQAAANCRPDGLYQTPGVTVPYCTVYDQDGREKMGVDHPRRVIGYFTSWRSGNDPQSSYLVNDIPWDSLTHINYAFVSIGSDGKVNIGNVNNPDNPAVGKEWPGVEIDPALGFKGHFGALATAKAQHGVKTLISIGGWAETGGHFDDNGNRVADGGFYTMTTNADGSINHQGIQTFADSAVAMMRQYKFDGLDIDYEYPTSMQGAGNPDDFAYSDAMRPHLMKSYHELMKVLREKLDQASAQDGHHYMLTIAAPSSGYLLRGMETMSVTKYLDYVNIMSYDLHGAWNDYVGHNASLFDSGLDAELEAGNVYGTAQYKKTGYLNTDWAYHYFRGSMPAGRINIGVPYYTRGWQGVTGGTNGLWGKAALPNQSDCPTGTGAGTSNCGYGAIGIDNMWHDKDANGNEMGAGSNPMWHAMNLANGVYGSYTAAYGLDPVNDPQDALTGTYTRHYDSVSVAPWLWNADKKVFLSTEDKESINTKADYVIEQGIGGIMFWELAGDYSCYNLDANGNRTTVDPTENACKTGNGEYHMGDTMTKAIHNKFATATPYGNTLAEGAIPTEAVNIDVSVTGFKVGDQNYPLNPTMTLTNKTGQTLPGGTEFQFDIPTSTPDNMSDQSGANLQVISSGHTRGDNIGGLDGNFHRVAFTLPSWKQLGNNESFELTLNYFLPISGPANYSVRVNNADYALAFEQPDLPIADLSNGGGDNGGGDGNNGDCVTTGVNTYPNWPQTDWAGNPSHAGTGDKIIYNGAVYQAKWWTNSVPGSDGSWDTVCTVQIE
modifications: PelB signal peptide; 6xHis tag; Chitinase 4

Columns and labels:
[1] = Reducing end assay, specific chitinase activity of expression and purification fractions; type: biochemical; settings: chitin powder, 16 h at 30° C.
Procedure: Integrity and correctness of the constructs was confirmed by colony PCR and Sanger-sequencing. All constructs were transformed into E. coli BL21 and expressed recombinantly. Expression levels of the target enzymes were determined densitometrically after immunoblot detection for cytosolic and secreted expression. Enzymatic activity was determined for all samples using a reducing end assay. […] Furthermore, it was confirmed that these enzymes are efficiently released into the culture supernatant, rendering cell lysis unnecessary for future production cycles.
A two-step purification of the selected recombinant enzymes with PelB signal peptide form the culture supernatant was carried out with an initial ammonium sulfate precipitation step and a sequential IMAC purification of the solubilized protein precipitate. Elution fractions were pooled and an SDS-PAGE and immunoblot was prepared loading the same volume for each sample (FIG. 4). Expression levels of the five chitinases varied largely, and C1 was detected in much greater abundance relative to the others. […] The observed molecular weight of all enzymes in SDS-PAGE gel and immunoblot was not in accordance with the expected theoretical molecular weight taking into account that a 6×His tag was added C-terminally to the enzymes and in general, bands for all enzymes were detected at a higher molecular weight. For all samples, unspecific bands could detected at ˜25 kDa and ˜50 kDa after IMAC purification, most likely representing host cell protein-contaminations. The amount of protein in the culture media, ammonium sulfate concentrates and the final dialyzed elution fractions was determined using the BCA assay and the same fractions were incubated with chitin powder for 16 h at 30° C. followed by the quantification of reducing sugars to measure specific chitinase activity (Table 4.2). Thereby it was confirmed that all target enzymes were successfully enriched during purification according to the specific activity.
(§1) For the determination of enzymatic activity of recombinant chitinases, a reducing end assay was carried out [Svein et al., Carbohydr Polym, 2004. 56(1): p. 35-39.]. Fractions containing chitinases were incubated with 5% (w/v) chitin powder extracted from shrimp shells (˜400.000 g/mol; Carl Roth) in MAT buffer for 2 h in an overhead shaker at ambient temperature (standard conditions). Samples were centrifuged at 13000×g for 2 min and 40 μl of the supernatant was mixed with 40 μl 0.5 M NaOH and 40 μL of a reagent containing 1.5 mg/ml 3-Methyl-2-benzothiazolinonhydrazon and 0.75 mg/ml Dithiothreitol. Samples were incubated at 80° C. for 15 min and then thoroughly mixed with 80 μl of 0.5% (w/v) FeNH4(SO4)2)×12H2O, 0.5% (w/v) sulfamic acid and 0.25 M HCl. After cooling down to room temperature, 100 μl of the samples were measured at 620 nm. A calibration curve of N-acetyl-glucosamine was constructed freshly for each measuring cycle. One unit [U] was defined as the amount of enzyme required to release 1 μmol of reducing sugars per hour.

[2] = Temperature, pH and NaCl optima and temperature stability of recombinant chitinases (reducing end assay); type: biochemical; settings: chitin powder; for Optimum pH: 30° C., pH 4-11; for Optimum salinity: pH 8, 30° C., 0-20% w/v NaCl; for Optimum temperature: pH 8, range 10-60° C.
Procedure: All enzymes were first characterized regarding their temperature and pH-optima as well as the optimum NaCl content as the enzymes were isolated from a sea-water microorganism. As the future intention is to integrate these novel enzymes in a degradation processes of natural chitin, all parameters were determined using chitin powder as a substrate instead of pre-treated analogs such as colloidal chitin, glycol chitin or artificial fluorogenic substrates. […] (FIG. 5A). Next, enzyme temperature stability was investigated (FIG. 51). […] Enzyme C1 retained a 50% residual activity after 240 min incubation at 60° C., while the activity of the other chitinases dropped below 50% after 15 min and remained on that level.
Given the marine origin of the P. orarium strain, the effect of salt was also evaluated, testing the addition of NaCl to the standard buffer. […] Increasing NaCl amounts up to 20% (w/v) reduced enzyme activity substantially to 10% for C2, 4 and 5, with C1 and C3 showing highest tolerance (65% activity).
as §1
Enzyme samples were incubated at different temperature (10-60° C., 10° C. increment) and pH (4-11, increment 1) using different buffer systems (Acetate, Tris-HCl, MES, total molar concentration 100 mM), as well as NaCl content (0, 1. 2.5, 5, 10 and 20% w/v) to determine optimum reaction conditions. All experiments were carried out at 1.0 ml scale using 2 μM of the respective enzymes and a 5% (wv) suspension of chitin powder extracted from shrimp shells (˜400.000 g/mol; Carl, Roth) in 100 mM MAT buffer. For the determination of the substrate specificity, chitin powder (5% w/v), glycol chitin (10% v/v), colloidal chitin (5% w/v), chitosan [DA 15-25%, medium molecular weight, Sigma-Aldrich] (5% w/v) and microcrystalline cellulose powder (Sigma Aldrich) (5% w/v) were investigated, respectively. The effect of several potential co-factors on activity was elucidated at a concentration of 1 mM. Additionally, the effect of detergents [SDS 0.5% (w/v), Tween-20 and Triton X-100 both at 0.5% (v/v)] and chemicals (Imidazole 100 mM, EDTA 1 mM) on enzymatic activity was assessed. Samples were incubated in a thermomixer for 16 h at 900 rpm. After incubation, samples were analyzed using the enzyme assay. Thermostability was assessed after incubation of recombinant chitinases at 60° C. for different durations followed by the quantification of residual enzyme activity under standard assay conditions.

[3] = TLC analysis of cleavage patterns with chitin standard molecules; type: biochemical; settings: for hydrolysis products from chitin pentamers / hydrolysis products from chitin trimers: 4 mg/ml, 16 h, TLC; for cleavage mechanism (exo-/endo-chitinase activity): TLC of products from oligomeric or polymeric chitin substrates
Procedure: monomeric oligomers. Chitosan was degraded to a crude mixture of multiple oligomers ranging from dimers to pentamers and even larger undefined yet water-soluble fragments that migrated slightly from the starting point. Further analysis of the cleavage patterns was carried out using chitin standard molecules of DP2-DP6 and incubating them at 4 mg/ml concentration with the individual enzymes (FIG. 9).
Dimeric chitin molecules were not converted by any of the enzymes. […] All chitinases degraded chitin tetramers to dimers as a single product. […] Chitin hexamers were degraded to dimers and trimers. Although all chitinases are different in their structure and present different glycosyl hydrolase domains hydrolysis products in general were similar.
C2, 4 and 5 yielded similar product patterns when incubated with insoluble substrates. […] The presented data underline that the novel chitinases are all suited for the degradation of powdery chitin without any further harsh chemical pre-treatment.
Hydrolysis products were analyzed using 10×10 cm TLC Silica gel 60 F254 plates (Merck, Darmstadt, Germany) and a mixture of butanol:methanol:25% ammonia:H2O (5:4:2:1) as mobile phase. A total sample volume of 0.5 μl was applied in 0.25 μl spots. Chitin standard sugars (Megazyme, Chicago, USA) (5 mg/ml) were applied to the plate (0.5 μL in 0.25 μL spots) as size standard for the determination of the DP. After separation, the plate was air-dried and the developing solution (200 ml Acetone, 30 ml phosphoric acid (85%), 4 ml aniline, 4 g diphenylamine) was sprayed on the plate followed by spot visualization at 300° C. using a heat gun.

[4] = test system: Gibberella zeae; type: cell-based; set-up: key: xx = no growth/strong inhibition; x = small inhibition; settings: start concentration 100 μg/ml
[5] = Dialysed elution fraction after IMAC

Row | Molecule | Specific activity ([1]; Culture supernatant fraction) | Specific activity [1, 5] | Optimum pH [2] | Optimum salinity [2] | Optimum temperature [2] | hydrolysis products from chitin pentamers [3] | hydrolysis products from chitin trimers [3] | cleavage mechanism (exo-/endo-chitinase activity) [3] | growth inhibition of Gibberella zeae in the MIC test [4]
1 | B1 | 0.13 U/mg | 8.13 U/mg | 8 | 5 % NaCl | 30 °C | dimers and monomers | dimers and monomers | exo-chitinase activity | x
2 | B2 | 0.07 U/mg | 6.07 U/mg | 8 | 1 % NaCl | 30 °C | trimers and dimers | dimers and monomers | endo-chitinase activity | x
